US20180250395A1 (Janssen / Centocor, published 2018)
Each block holds one binder with its values, some of them ahead of it.

Key:
[1] = biological target: T1, recombinant human CD47 extracellular domain (ECD), His-tagged, dimer (human, UniProt Q08722 19-141); assay: MSD; CD47-ECD dimer binding to captured SIRP alpha-Fc, mAb 10 µg/ml
T1 construct: Dimeric fraction of the same His-tagged ECD; also called His-tagged CD47-ECD dimer protein

[2] = biological target: T2, Cyno CD47 ECD protein, His-tagged, monomer (cyno); assay: ProteOn SPR; cyno KD / human KD
T2 construct: extracellular domain; also called cynomolgus CD47

[3] = biological target: T2, Cyno CD47 ECD protein, His-tagged, …; assay: ProteOn SPR; mAb captured, ECD monomer as analyte
[4] = biological target: T3, recombinant human CD47 extracellular domain (ECD), His-tagged, monomer (human, UniProt Q08722 19-141); assay: ProteOn SPR; mAb captured, ECD monomer as analyte
T3 construct: C-terminal 6xHis tag; monomeric fraction from Superdex 200; also called human CD47 ECD; CD47-ECD monomer

B1: C47B226 (antibody, V domains shown)
VH: EVQLVQSGAEVKKPGESLKISCKGSGYSFDDYWIGWVRQMPGKGLEWMGIIYPGDSDTRYSPSFQGQVTISADKSISTAYLQWSSLKASDTAVYYCARVGRFASHQLDYWGQGTLVTVSS
VL: EIVLTQSPATLSLSPGERATLSCRASQSVNNRLAWYQQKPGQAPRLLIHWASTRAIGIPARFSGSGSGTDFTLTISSLEPEDFAVYYCQQGASWPFTFGQGTKVEIK
notes: human IgG2sigma/kappa; also called C27B226
- % SIRP alpha Inhibition [1]: 100%
- KD Ratio Cyno/Human [2]: 0.6
- Kd [3]: 0.543 nM
- Kd [4]: 0.872 nM

B2: C47B227 (antibody, V domains shown)
VH: EVQLVQSGAEVKKPGESLKISCKGSGYSFDDYWIGWVRQMPGKGLEWMGIIYPGDSDTRYSPSFQGQVTISADKSISTAYLQWSSLKASDTAVYYCARVGRFASHQLDYWGQGTLVTVSS
VL: EIVLTQSPATLSLSPGERATLSCRASQSVGSRLAWYQQKPGQAPRLLIYWASTRATGIPARFSGSGSGTDFTLTISSLEPEDFAVYYCQQGAYWPFTFGQGTKVEIK
notes: human IgG2sigma/kappa
- % SIRP alpha Inhibition [1]: 100%
- KD Ratio Cyno/Human [2]: 0.6
- Kd [3]: 0.574 nM
- Kd [4]: 0.902 nM

B3: C47B228 (antibody, V domains shown)
VH: EVQLVQSGAEVKKPGESLKISCKGSGYSFDDYWIGWVRQMPGKGLEWMGIIYPGDSDTRYSPSFQGQVTISADKSISTAYLQWSSLKASDTAVYYCARVGRFASHQLDYWGQGTLVTVSS
VL: EIVLTQSPATLSLSPGERATLSCRASQSVSNRQAWYQQKPGQAPRLLIHSASNRATGIPARFSGSGSGTDFTLTISSLEPEDFAVYYCQQGRSWPFTFGQGTKVEIK
notes: human IgG2sigma/kappa
- % SIRP alpha Inhibition [1]: 99.3%
- KD Ratio Cyno/Human [2]: 0.9
- Kd [3]: 2.53 nM
- Kd [4]: 2.69 nM

B4: C47B229 (antibody, V domains shown)
VH: EVQLVQSGAEVKKPGESLKISCKGSGYSFDDAWIGWVRQMPGKGLEWMGIIYPGDSDTRYSPSFQGQVTISADKSISTAYLQWSSLKASDTAVYYCARVGRFASHQLDYWGQGTLVTVSS
VL: EIVLTQSPATLSLSPGERATLSCRASQSVNKALAWYQQKPGQAPRLLIYGASNRATGIPARFSGSGSGTDFTLTISSLEPEDFAVYYCQQGKGWPFTFGQGTKVEIK
notes: human IgG2sigma/kappa
- % SIRP alpha Inhibition [1]: 16.1%
- KD Ratio Cyno/Human [2]: 3.9
- Kd [3]: 8.32 nM
- Kd [4]: 2.15 nM

B5: C47B230 (antibody, V domains shown)
VH: EVQLVQSGAEVKKPGESLKISCKGSGYSFTDDWIGWVRQMPGKGLEWMGIIYPGDSDTRYSPSFQGQVTISADKSISTAYLQWSSLKASDTAVYYCARVGRFASHQLDYWGQGTLVTVSS
VL: EIVLTQSPATLSLSPGERATLSCRASQSVNKALAWYQQKPGQAPRLLIYGASNRATGIPARFSGSGSGTDFTLTISSLEPEDFAVYYCQQGKGWPFTFGQGTKVEIK
notes: human IgG2sigma/kappa
- % SIRP alpha Inhibition [1]: 28.4%
- KD Ratio Cyno/Human [2]: 3.7
- Kd [3]: 7.28 nM
- Kd [4]: 1.99 nM

B6: C47B231 (antibody, V domains shown)
VH: EVQLVQSGAEVKKPGESLKISCKGSGYSFTNYWIGWVRQMPGKGLEWMGIIYPGDSDTRYSPSFQGQVTISADKSISTAYLQWSSLKASDTAVYYCARVGRFASHQLDYWGQGTLVTVSS
VL: EIVLTQSPATLSLSPGERATLSCRASQSVNKALAWYQQKPGQAPRLLIYGASNRATGIPARFSGSGSGTDFTLTISSLEPEDFAVYYCQQGKGWPFTFGQGTKVEIK
notes: human IgG2sigma/kappa
- % SIRP alpha Inhibition [1]: 83.7%
- KD Ratio Cyno/Human [2]: 1.1
- Kd [3]: 12.3 nM
- Kd [4]: 11.3 nM

Other lines, results leading:

- % SIRP alpha Inhibition [1]: 99.6%
- KD Ratio Cyno/Human [2]: 0.9
- Kd [3]: 2.42 nM
- Kd [4]: 2.8 nM
B7: C47B232 (antibody, V domains shown)
VH: EVQLVQSGAEVKKPGESLKISCKGSGYSFTNYWIGWVRQMPGKGLEWMGIIYPGDSDTRYSPSFQGQVTISADKSISTAYLQWSSLKASDTAVYYCARVGRFASHQLDYWGQGTLVTVSS
VL: EIVLTQSPATLSLSPGERATLSCRASQSVNNRLAWYQQKPGQAPRLLIHWASTRAIGIPARFSGSGSGTDFTLTISSLEPEDFAVYYCQQGASWPFTFGQGTKVEIK
notes: human IgG2sigma/kappa

- % SIRP alpha Inhibition [1]: 98.4%
- KD Ratio Cyno/Human [2]: 0.8
- Kd [3]: 3.02 nM
- Kd [4]: 3.9 nM
B8: C47B233 (antibody, V domains shown)
VH: EVQLVQSGAEVKKPGESLKISCKGSGYSFTNYWIGWVRQMPGKGLEWMGIIYPGDSDTRYSPSFQGQVTISADKSISTAYLQWSSLKASDTAVYYCARVGRFASHQLDYWGQGTLVTVSS
VL: EIVLTQSPATLSLSPGERATLSCRASQSVGSRLAWYQQKPGQAPRLLIYWASTRATGIPARFSGSGSGTDFTLTISSLEPEDFAVYYCQQGAYWPFTFGQGTKVEIK
notes: human IgG2sigma/kappa

- % SIRP alpha Inhibition [1]: 86.6%
- KD Ratio Cyno/Human [2]: 1.8
- Kd [3]: 7.93 nM
- Kd [4]: 4.49 nM
B9: C47B234 (antibody, V domains shown)
VH: EVQLVQSGAEVKKPGESLKISCKGSGYSFDNYWIGWVRQMPGKGLEWMGIIYPGDSDTRYSPSFQGQVTISADKSISTAYLQWSSLKASDTAVYYCARVGRFASHQLDYWGQGTLVTVSS
VL: EIVLTQSPATLSLSPGERATLSCRASQSVNKALAWYQQKPGQAPRLLIYGASNRATGIPARFSGSGSGTDFTLTISSLEPEDFAVYYCQQGKGWPFTFGQGTKVEIK
notes: human IgG2sigma/kappa

- % SIRP alpha Inhibition [1]: 99.9%
- KD Ratio Cyno/Human [2]: 1.3
- Kd [3]: 3.06 nM
- Kd [4]: 2.35 nM
B10: C47B235 (antibody, V domains shown)
VH: EVQLVQSGAEVKKPGESLKISCKGSGYSFDDYWISWVRQMPGKGLEWMGIIYPGDSDTRYSPSFQGQVTISADKSISTAYLQWSSLKASDTAVYYCARVGRFASHQLDYWGQGTLVTVSS
VL: EIVLTQSPATLSLSPGERATLSCRASQSVNKALAWYQQKPGQAPRLLIYGASNRATGIPARFSGSGSGTDFTLTISSLEPEDFAVYYCQQGKGWPFTFGQGTKVEIK
notes: human IgG2sigma/kappa

- % SIRP alpha Inhibition [1]: 9.8%
- KD Ratio Cyno/Human [2]: 5
- Kd [3]: 14.6 nM
- Kd [4]: 2.92 nM
B11: C47B236 (antibody, V domains shown)
VH: EVQLVQSGAEVKKPGESLKISCKGSGYSFKDDWIGWVRQMPGKGLEWMGIIYPGDSDTRYSPSFQGQVTISADKSISTAYLQWSSLKASDTAVYYCARVGRFASHQLDYWGQGTLVTVSS
VL: EIVLTQSPATLSLSPGERATLSCRASQSVNKALAWYQQKPGQAPRLLIYGASNRATGIPARFSGSGSGTDFTLTISSLEPEDFAVYYCQQGKGWPFTFGQGTKVEIK
notes: human IgG2sigma/kappa

- % SIRP alpha Inhibition [1]: 97.9%
- KD Ratio Cyno/Human [2]: 1.4
- Kd [3]: 3.51 nM
- Kd [4]: 2.57 nM
B12: C47B237 (antibody, V domains shown)
VH: EVQLVQSGAEVKKPGESLKISCKGSGYSFTSYWIGWVRQMPGKGLEWMGIIYPGDSDTRYSPSFQGQVTISADKSISTAYLQWSSLKASDTAMYYCARVGRFASHQLDYWGQGTLVTVSS
VL: EIVLTQSPATLSLSPGERATLSCRASQSVNNRLAWYQQKPGQAPRLLIHWASTRAIGIPARFSGSGSGTDFTLTISSLEPEDFAVYYCQQGASWPFTFGQGTKVEIK
notes: human IgG2sigma/kappa

- % SIRP alpha Inhibition [1]: 99.1%
- KD Ratio Cyno/Human [2]: 1.1
- Kd [3]: 3.73 nM
- Kd [4]: 3.53 nM
B13: C47B238 (antibody, V domains shown)
VH: EVQLVQSGAEVKKPGESLKISCKGSGYSFTSYWIGWVRQMPGKGLEWMGIIYPGDSDTRYSPSFQGQVTISADKSISTAYLQWSSLKASDTAMYYCARVGRFASHQLDYWGQGTLVTVSS
VL: EIVLTQSPATLSLSPGERATLSCRASQSVGSRLAWYQQKPGQAPRLLIYWASTRATGIPARFSGSGSGTDFTLTISSLEPEDFAVYYCQQGAYWPFTFGQGTKVEIK
notes: human IgG2sigma/kappa
